This is an account of results in article PMC11245854.

For assay [1], the target named is human C1, P02745;P02746;P02747. Description: HS-AFM. The note with it: CL domain anchored onto a Ni2+-coated mica surface using the C-terminal hexahistidine tag; count in 10 different scanning areas; parent: est. 150; read off a plot.
Assay [2] has as its target human C1q, P02745;P02746;P02747. Description: HS-AFM. The note with it: CL domain anchored onto a Ni2+-coated mica surface using the C-terminal hexahistidine tag; count in 10 different scanning areas; parent: est. 88; read off a plot.

With “human Cκ domain (from UniProt P01834) E194A”, the response worked out at 55 molecules in assay [1] and 19 molecules in assay [2].
For “human Cκ domain (from UniProt P01834) K206A”, in that order: 160 molecules and 83 molecules.
